Assay results as given in patent US20140289906A1, “Compositions Having Dicamba Decarboxylase Activity and Methods of Use” (priority 2013, published 2014).

What was measured:
[1] = Dicamba decarboxylation activity of computationally designed protein variants and parents (Tables 4, 5)
[2] = LC-MS/MS detection of 4-chloro-3-methoxy phenol; type: biochemical; conditions: purified protein, dicamba
Method: The decarboxylated and chloro hydrolyzed product, 4-chloro-3-methoxy phenol (FIG. 1D), is measured using a LC-MS/MS analytical procedure. […] 10 ul is removed from the reaction mixture and mixed with 90 ul pre-chilled methanol followed by centrifugation at 14,000 rpm for 15 min at 4° C. 10 ul of the supernatant is then transferred into 170 ul ddH2O to achieve 5% methanol solution for injection. 50 ul of the prepared sample is injected into a 4000 Q Trap LC-MS/MS system for sample analysis. LC-MS/MS parameters are: Mobile Phase A, 2 mM ammonium acetate in water; Mobile Phase B, 2 mM ammonium acetate in methanol; Column, Aquasil, 100×2.1 mm, 3 μm, C18 column; Flow Rate, 0.6 ml/min. The MS/MS fragment 157/142 which is common to 4-chloro-3-methoxy phenol, 2-chloro-5-methoxy phenol, and 3-chloro-5-methoxy phenol is monitored at a retention time of 2.88 min.

[3] = GC/MS detection of 2,5-dichloro anisole (2,5-DCA), toluene trapping or head-space; type: biochemical; conditions: purified protein, dicamba, toluene capturing
Method: Alternatively, dicamba decarboxylase activity can be monitored by measuring decarboxylation products other than CO2 using product detection methods. The decarboxylation product of dicamba, 2,5-dichloro anisole or 2,5-DCA (FIG. 1C), is a volatile compound with a flash point of 21° C. To capture this volatile compound for detection, 140 ul of toluene solution is added on top of 1 ml reaction mixture to form a trapping layer in a 1.5 ml eppendorf tube. […] The reaction is kept still at room temperature overnight before being vortex mixed and centrifuged at 14,000 rpm for 15 minutes. The top toluene phase is carefully removed using a micropipette and transferred into a 12×32 mm polypropylene vial (Vial 11 mm) from MicroLiter Analytical Supplies, Inc. (catalog number 11-5300-100). The vial is sealed with Crimp seal (11 mm with FEP/Nat Rubber) from MicroLiter Analytical Supplies, Inc. (catalog number 11-0020A) using a E-Z Crimper™ 11 mm from Wheaton Inc. 1 ul of the toluene mixture is taken from the sealed vials and injected in splitless mode into a GC/MS system for sample analysis (Agilent GC/MS system with a 6890A GC, a 5973N MSD and a CTC CombiPAL auto-sampler or with a 7890A GC, a 5975C MSD and an Agilent GC Sampler 80 auto-sampler). The GC parameters are: Agilent DB-5MS column (30 m length, 0.25 mm diameter, 0.25 um film) or equivalent; The GC inlet temperature, 250° C.; Carry gas, helium in constant flow mode (1.2 mL/min); The GC oven temperature program, initial temperature at 70° C. for 1 min, ramping to 200° C. at 15° C./min, and then ramping to 250° C. at 30° C./min. MS data acquisition is done in SIM (selected ion monitoring) mode, monitoring the positive ion at M/Z 176 for the molecular ion of […]. The solvent delay for MS acquisition is set at 4 min. Another method for detection of 2,5-DCA is a head-space GC/MS method. Briefly, reaction mixtures in 500 ul reaction volume are prepared in 1.5 ml 12×32 mm glass vials (Microliter Analytical Supplies, Cat#11-1200) for head space analysis. Glass vials are sealed with magnetic cap from MicroLiter Analytical Supplies, Inc. (catalog number 11-0030AT) using a E-Z Crimper™ 11 mm from Wheaton Industries Inc. The reaction is carried out at room temperature for various amount of time and stopped by heating at 95° C. for 5 min. The reaction vial is transferred to a agitator for incubation at 80° C. for 5 min at 500 rpm. With a syringe preheated at 80° C., 1000 uL of head space is injected with sample fill speed at 100 uL/sec. GC/MS parameters for headspace analysis are the same as for liquid sample analysis.

[4] = 14C assay: 14CO2 capture from [14C]-carboxyl-labeled dicamba with purified protein; type: biochemical
[5] = GC/MS detection of 2,5-dichloro phenol (2,5-DCP); kinetic determination; type: biochemical; conditions: purified protein, dicamba
Method: The decarboxylated and demethylated product of dicamba, 2,5-dichloro phenol or 2,5-DCP (FIG. 1E) is measured using a GC/MS analytical procedure with either liquid injection after liquid/liquid extraction using toluene as the extraction solvent or gas injection using head space method. The head space sample analysis is carried out on an Agilent GC/MS system with a 6890A GC, a 5973N MSD and a CTC CombiPAL auto-sampler or with a 7890A GC, a 5975C MSD and an Agilent GC Sampler 80 auto-sampler with Phenomenex ZB-MultiResidue-1 column (30 m length, 0.25 mm diameter, 0.25 um film) or equivalent. GC/MS parameters are: GC inlet temperature, 200° C.; Carry gas, helium in constant flow mode (1.2 mL/min); Oven temperature program, 70° C. for 1 min and then ramp to 275° C. at 40° C./min. […] The reaction vial is transferred to a agitator for incubation at 90° C. for 4 min at 500 rpm. With a syringe preheated at 110° C., 1000 uL of head space is injected with sample fill speed at 100 uL/sec. A 2-mm diameter liner is used in sample inlet. The MS data acquisition is done in SIM (selected ion monitoring) mode. The positive ion at M/Z 162 for the molecular ion of 2,-5-DCP is monitored at retention time of 4.06 min. Solvent delay for MS acquisition is set at 3 min. GC/MS parameters for liquid sample analysis are the same as those for head space analysis, except that the volume of liquid injection is 1 uL.

[6] = 14C assay: 14CO2 capture from [14C]-carboxyl-labeled dicamba with IPTG-induced recombinant E. coli cells
[7] = Saturation mutagenesis of SEQ ID NO:109: dicamba decarboxylation activity of point mutants (Table 7)
[8] = dicamba decarboxylation activity of point mutants of SEQ ID NO: 109 from NNK saturation mutagenesis, 0.7-fold used as cut-off
[9] = point mutant of SEQ ID NO:109, dicamba decarboxylation activity relative to the unchanged template

| Molecule | Average Activity (Fold of SEQ ID NO: 109) [7, 8] | Average Activity (Fold of SEQ ID NO: 109) [7, 9] | other results |
| --- | --- | --- | --- |
| 1 (protein, listed as Rhizobium sp.) MAQGKVALEEHFAIPETLQDSAGFVPGDYWKELQHRLLDIQDTRLKLMDAHGIETMILSLNAPAVQAIPDRRKAIEIARRANDVLAEECAKRPDRFLAFAALPLQDPDAATEELQRCVNDLGFVGALVNGFSQEGDGQTPLYYDLPQYRPFWGEVEKLDVPFYLHPRNPLPQDSRIYDGHPWLLGPTWAFAQETAVHALRLMASGLFDEHPRLNIILGHMGEGLPYMMWRIDHRNAWVKLPPRYPAKRRFMDYFNENFHITTSGNFRTQTLIDAILEIGADRILFSTDWPFENIDHASDWFNATSIAEADRVKIGRTNARRLFKLDGA | – | – | dicamba decarboxylase activity (statement in the description) ([1]; native proteins and designed variants, assay not specified): native dicamba decarboxylase activity; Percent Activity Improvement Over Parent (%) ([1]; parent (SEQ ID NO: 1 or SEQ ID NO: 41) = 100): 100%; 4-chloro-3-methoxy phenol product detected [2]: detected; 2,5-DCA product detected [3]: detected; CO2 product detected [4]: detected; 2,5-DCP product detected [5]: detected; Dicamba Decarboxylase Activity ([6]; IPTG-induced recombinant E. coli cells, 14CO2 from [14C]-carboxyl-labeled dicamba): High; decarboxylation activity of dicamba ([6]; among the 108 sequences tested, recombinant E. coli cell assay): showed decarboxylation activity of dicamba; Enzymatic Detection level ([6]; dicamba decarboxylation activity): High |
| D42A: point mutation of SEQ ID NO:109 (protein, Dicamba decarboxylase variant clone DC.4.032) MAQGKVALEEHFAIPETLQDSAGFVPGDYWKELQHRLLDIQATRLKLMDAHGIETMILSLNAPAVQAIPDRRKAIEIARRANDVLAEECAKRPDRFLAFAALPLQDPDAATEELQRCVNDLGFVGALVNGFSQEGDGQTPLYYDLPQYRPFWGEVEKLDVPFYLHPRNPLPQDSRIYDGHPWLLGPTWAFAQETAVHALRLMASGLFDEHPRLNIILGHMGEGLPYMMWRIDHRVAWVKLPPRYPAKRRFMDYFNENFHITTSGNFRTQTLIDAILEIGADRILFSTDWPFENIDHASDWFNATSIAEADRVKIGRTNARRLFKLDGA | 2.0 Fold of SEQ ID NO: 109 | – | – |
| D42S: point mutation of SEQ ID NO:109 (protein, Dicamba decarboxylase variant clone DC.4.032) MAQGKVALEEHFAIPETLQDSAGFVPGDYWKELQHRLLDIQSTRLKLMDAHGIETMILSLNAPAVQAIPDRRKAIEIARRANDVLAEECAKRPDRFLAFAALPLQDPDAATEELQRCVNDLGFVGALVNGFSQEGDGQTPLYYDLPQYRPFWGEVEKLDVPFYLHPRNPLPQDSRIYDGHPWLLGPTWAFAQETAVHALRLMASGLFDEHPRLNIILGHMGEGLPYMMWRIDHRVAWVKLPPRYPAKRRFMDYFNENFHITTSGNFRTQTLIDAILEIGADRILFSTDWPFENIDHASDWFNATSIAEADRVKIGRTNARRLFKLDGA | 2.0 Fold of SEQ ID NO: 109 | – | – |
| G52E: point mutation of SEQ ID NO:109 (protein, Dicamba decarboxylase variant clone DC.4.032) MAQGKVALEEHFAIPETLQDSAGFVPGDYWKELQHRLLDIQDTRLKLMDAHEIETMILSLNAPAVQAIPDRRKAIEIARRANDVLAEECAKRPDRFLAFAALPLQDPDAATEELQRCVNDLGFVGALVNGFSQEGDGQTPLYYDLPQYRPFWGEVEKLDVPFYLHPRNPLPQDSRIYDGHPWLLGPTWAFAQETAVHALRLMASGLFDEHPRLNIILGHMGEGLPYMMWRIDHRVAWVKLPPRYPAKRRFMDYFNENFHITTSGNFRTQTLIDAILEIGADRILFSTDWPFENIDHASDWFNATSIAEADRVKIGRTNARRLFKLDGA | 3.1 Fold of SEQ ID NO: 109 | 3.1 Fold of SEQ ID NO: 109 | – |
| D42M: point mutation of SEQ ID NO:109 (protein, Dicamba decarboxylase variant clone DC.4.032) MAQGKVALEEHFAIPETLQDSAGFVPGDYWKELQHRLLDIQMTRLKLMDAHGIETMILSLNAPAVQAIPDRRKAIEIARRANDVLAEECAKRPDRFLAFAALPLQDPDAATEELQRCVNDLGFVGALVNGFSQEGDGQTPLYYDLPQYRPFWGEVEKLDVPFYLHPRNPLPQDSRIYDGHPWLLGPTWAFAQETAVHALRLMASGLFDEHPRLNIILGHMGEGLPYMMWRIDHRVAWVKLPPRYPAKRRFMDYFNENFHITTSGNFRTQTLIDAILEIGADRILFSTDWPFENIDHASDWFNATSIAEADRVKIGRTNARRLFKLDGA | 2.4 Fold of SEQ ID NO: 109 | 2.4 Fold of SEQ ID NO: 109 | – |
| L38I: point mutation of SEQ ID NO:109 (protein, Dicamba decarboxylase variant clone DC.4.032) MAQGKVALEEHFAIPETLQDSAGFVPGDYWKELQHRLIDIQDTRLKLMDAHGIETMILSLNAPAVQAIPDRRKAIEIARRANDVLAEECAKRPDRFLAFAALPLQDPDAATEELQRCVNDLGFVGALVNGFSQEGDGQTPLYYDLPQYRPFWGEVEKLDVPFYLHPRNPLPQDSRIYDGHPWLLGPTWAFAQETAVHALRLMASGLFDEHPRLNIILGHMGEGLPYMMWRIDHRVAWVKLPPRYPAKRRFMDYFNENFHITTSGNFRTQTLIDAILEIGADRILFSTDWPFENIDHASDWFNATSIAEADRVKIGRTNARRLFKLDGA | 2.0 Fold of SEQ ID NO: 109 | 2.0 Fold of SEQ ID NO: 109 | – |
| G27T: point mutation of SEQ ID NO:109 (protein, Dicamba decarboxylase variant clone DC.4.032) MAQGKVALEEHFAIPETLQDSAGFVPTDYWKELQHRLLDIQDTRLKLMDAHGIETMILSLNAPAVQAIPDRRKAIEIARRANDVLAEECAKRPDRFLAFAALPLQDPDAATEELQRCVNDLGFVGALVNGFSQEGDGQTPLYYDLPQYRPFWGEVEKLDVPFYLHPRNPLPQDSRIYDGHPWLLGPTWAFAQETAVHALRLMASGLFDEHPRLNIILGHMGEGLPYMMWRIDHRVAWVKLPPRYPAKRRFMDYFNENFHITTSGNFRTQTLIDAILEIGADRILFSTDWPFENIDHASDWFNATSIAEADRVKIGRTNARRLFKLDGA | 2.0 Fold of SEQ ID NO: 109 | – | – |
